Reference: the Human Domainome abundance scans (Beltran et al. 2025)

B1: Androgen receptor, residues 557 to 632; numbered along this chain, P10275 (parent)
chain: QKTCLICGDEASGCHYGALTCGSCKVFFKRAAEGKQKYLCASRNDCTIDKFRRKNCPSCRLRKCYEAGMTLGARKL

Variants of: B1
Assay: abundance fitness (aPCA) (normalised: wild type 0, dead -1); higher = more abundant; growth selection in yeast, the domain comes from the species named
Conditions: Homo sapiens

Abundance fitness, by site and new letter:
I48: D -0.331 | E -0.348 | P -0.25 | S -0.251 | N -0.199 | F -0.226 | L -0.204 | H -0.482 | G -0.362 | Q -0.203 | V -0.02 | Y -0.177 | C -0.585 | M -0.154 | W -0.37
C46: R -0.892 | A -0.904 | N -0.711 | K -0.735 | D -0.495 | E -0.542 | H -0.38 | Q -0.8 | S -0.843 | M -0.914 | I -0.784 | F -0.912 | Y -1.06 | T -0.713 | V -0.942 | W -0.878 | P -0.926
N44: F -0.158 | T -0.159 | H -0.229 | L -0.251 | M -0.083 | E -0.031 | W -0.344 | S -0.076 | Y -0.274 | A -0.064 | K -0.177 | D -0.002 | C -0.419 | V -0.343 | G 0.026 | I -0.433 | R -0.258
Y65: V 0.02 | Q -0.037 | K -0.178 | M -0.093 | S -0.208 | F -0.056 | C 0.036 | N -0.062 | W -0.044 | H -0.1 | I -0.081 | R -0.117 | E -0.092 | A -0.158 | T -0.276 | L -0.081 | G -0.218 | D -0.17
N55: H -0.011 | Q -0.076 | P -0.099 | K 0.044 | G -0.073 | V -0.151 | M 0.216 | L -0.022 | D 0.032 | Y -0.067 | W -0.421 | E -0.407 | I -0.075 | A 0.089 | T -0.012 | C -0.075 | R -0.06
C56: I -0.782 | K -0.848 | N -0.968 | W -0.964 | V -1.15 | S -0.776 | T -0.562 | Q -1.01 | M -0.662 | F -0.938 | H -0.804 | A -0.533 | P -0.812 | L -0.498 | G -1.05 | R -1.02 | D -0.663
S58: E 0.133 | R -0.09 | Y -0.202 | V -0.16 | Q -0.134 | H -0.112 | K -0.125 | W -0.458 | D -0.029 | T -0.229 | C 0.075 | I -0.577 | A -0.035 | G 0.059 | N -0.189 | L -0.251 | P 0.013
L39: Q 0.011 | W -0.064 | R -0.006 | P -0.086 | V 0.029 | K 0.094 | S -0.128 | T -0.032 | N -0.008 | H -0.033 | M 0.047 | Y 0.045
R52: W -0.311 | F -0.164 | N -0.072 | T 0.067 | L -0.044 | G -0.001 | S -0.087 | E -0.003 | D 0.047 | P 0.004 | I -0.042 | Y -0.09 | Q -0.063 | H -0.076 | C -0.087 | V 0.041 | K -0.033 | M -0.067 | A -0.157
K50: L -0.027 | H -0.087 | N 0.087 | R -0.068 | S -0.13 | C -0.103 | M -0.195 | D -0.403 | Q -0.075 | T -0.068 | G -0.146 | E -0.124 | P -0.007 | W -0.227 | I -0.26 | Y -0.124 | V -0.063 | F -0.277
